{
  "source": "FireProtDB (doi:10.1093/protein/15.6.455)",
  "parents": {"B1": {"name": "Cytochrome c-551, P00099 (parent)", "chain": "MKPYALLSLLATGTLLAQGAWAEDPEVLFKNKGCVACHAIDTKMVGPAYKDVAAKFAGQAGAEAELAQRIKNGSQGVWGPIPMPPNAVSDDEAQTLAKWVLSQK"}},
  "variants_of": "B1",
  "details": "Pseudomonas aeruginosa (strain ATCC 15692 / DSM 22644 / CIP 104116 / JCM 14847 / LMG 12228 / 1C / PRS 101 / PAO1), pH 3.6, Thermal, DSC, sodium acetate 50 mM, reversible: yes, structure 451C, whole UniProt chain shown; for ddG of mutation (higher = less stable) / heat capacity change of unfolding / unfolding enthalpy (calorimetric): 62.6 °C",
  "data": [
    {"variant": "MKPYALLSLLATGTLLAQGAWAEDPEVLFKNKGCVACHAIDTKMVGPAYKDVAAKYAGQAGAEAYLAQRIKNGSQGVWGPIPMPPNAVSDDEAQTLAKWILSQK", "note": "[F56Y E65Y V100I]", "values": [
      {"measurement": "ddG of mutation (higher = less stable)", "value": -2.21, "unit": "kcal/mol"},
      {"measurement": "heat capacity change of unfolding", "value": 0.95, "unit": "kcal/mol/K"},
      {"measurement": "unfolding enthalpy (calorimetric)", "value": 67, "unit": "kcal/mol"},
      {"measurement": "Tm", "value": 73.3, "unit": "°C"},
      {"measurement": "change of melting temperature, mutant - wild type (higher = more stable)", "value": 10.7, "unit": "°C"}
    ]},
    {"variant": "MKPYALLSLLATGTLLAQGAWAEDPEVLFKNKGCVACHAIDTKMVGPAYKDVAAKFAGQAGAEAELAQRIKNGSQGVWGPIPMPPNAVSDDEAQTLAKWILSQK", "note": "[V100I]", "values": [
      {"measurement": "ddG of mutation (higher = less stable)", "value": -1.11, "unit": "kcal/mol"},
      {"measurement": "heat capacity change of unfolding", "value": 0.73, "unit": "kcal/mol/K"},
      {"measurement": "unfolding enthalpy (calorimetric)", "value": 65.6, "unit": "kcal/mol"}
    ]},
    {"variant": "MKPYALLSLLATGTLLAQGAWAEDPEVLAKNKGCMACHAIDTKMVGPAYKDVAAKYAGQAGAEAYLAQRIKNGSQGVWGPIPMPPNAVSDDEAQTLAKWVLSQK", "note": "[F29A V35M F56Y E65Y]", "values": [
      {"measurement": "ddG of mutation (higher = less stable)", "value": -3.02, "unit": "kcal/mol"},
      {"measurement": "heat capacity change of unfolding", "value": 1, "unit": "kcal/mol/K"},
      {"measurement": "unfolding enthalpy (calorimetric)", "value": 64.8, "unit": "kcal/mol"},
      {"measurement": "Tm", "value": 77.4, "unit": "°C"},
      {"measurement": "change of melting temperature, mutant - wild type (higher = more stable)", "value": 14.8, "unit": "°C"}
    ]},
    {"variant": "MKPYALLSLLATGTLLAQGAWAEDPEVLAKNKGCMACHAIDTKMVGPAYKDVAAKFAGQAGAEAELAQRIKNGSQGVWGPIPMPPNAVSDDEAQTLAKWILSQK", "note": "[F29A V35M V100I]", "values": [
      {"measurement": "ddG of mutation (higher = less stable)", "value": -2.61, "unit": "kcal/mol"},
      {"measurement": "heat capacity change of unfolding", "value": 0.92, "unit": "kcal/mol/K"},
      {"measurement": "unfolding enthalpy (calorimetric)", "value": 64.4, "unit": "kcal/mol"}
    ]},
    {"variant": "MKPYALLSLLATGTLLAQGAWAEDPEVLAKNKGCMACHAIDTKMVGPAYKDVAAKFAGQAGAEAELAQRIKNGSQGVWGPIPMPPNAVSDDEAQTLAKWVLSQK", "note": "[F29A V35M]", "values": [
      {"measurement": "ddG of mutation (higher = less stable)", "value": -1.88, "unit": "kcal/mol"},
      {"measurement": "heat capacity change of unfolding", "value": 0.64, "unit": "kcal/mol/K"},
      {"measurement": "unfolding enthalpy (calorimetric)", "value": 64.2, "unit": "kcal/mol"},
      {"measurement": "Tm", "value": 72.4, "unit": "°C"},
      {"measurement": "change of melting temperature, mutant - wild type (higher = more stable)", "value": 9.8, "unit": "°C"}
    ]},
    {"variant": "MKPYALLSLLATGTLLAQGAWAEDPEVLFKNKGCVACHAIDTKMVGPAYKDVAAKYAGQAGAEAYLAQRIKNGSQGVWGPIPMPPNAVSDDEAQTLAKWVLSQK", "note": "[F56Y E65Y]", "values": [
      {"measurement": "ddG of mutation (higher = less stable)", "value": -1.26, "unit": "kcal/mol"},
      {"measurement": "heat capacity change of unfolding", "value": 0.74, "unit": "kcal/mol/K"},
      {"measurement": "unfolding enthalpy (calorimetric)", "value": 65.5, "unit": "kcal/mol"},
      {"measurement": "Tm", "value": 69, "unit": "°C"},
      {"measurement": "change of melting temperature, mutant - wild type (higher = more stable)", "value": 6.4, "unit": "°C"}
    ]},
    {"variant": "MKPYALLSLLATGTLLAQGAWAEDPEVLAKNKGCMACHAIDTKMVGPAYKDVAAKYAGQAGAEAYLAQRIKNGSQGVWGPIPMPPNAVSDDEAQTLAKWILSQK", "note": "[F29A V35M F56Y E65Y V100I]", "values": [
      {"measurement": "ddG of mutation (higher = less stable)", "value": -4.55, "unit": "kcal/mol"},
      {"measurement": "heat capacity change of unfolding", "value": 1.12, "unit": "kcal/mol/K"},
      {"measurement": "unfolding enthalpy (calorimetric)", "value": 71.1, "unit": "kcal/mol"},
      {"measurement": "Tm", "value": 82.4, "unit": "°C"},
      {"measurement": "change of melting temperature, mutant - wild type (higher = more stable)", "value": 19.8, "unit": "°C"}
    ]}
  ]
}
